US20230008090A1

Columns and labels:
[1] = target: human CD3 on Jurkat.2B8 (CD3+/EGFR-) cells (human) (UniProt P07766); assay: flow cytometry on Jurkat.2B8 (CD3+/EGFR-) cells
[2] = target: cynomolgus monkey CD3 on cynomolgus monkey PBMC / T cells (cynomolgus monkey) (UniProt Q95LI5); assay: flow cytometry on cyno T cells (cynomolgus monkey PBMC)
[3] = target: cynomolgus monkey EGFR on CHOK1-cynoPro1 (EGFR+/CD3-) cells (cynomolgus monkey); assay: flow cytometry on CHOK1-cynoPro1 cells
[4] = target: human EGFR on tumor cells (A431, HT-29, MCF-7) (human) (UniProt P00533); assay: flow cytometry on A431 (EGFR+/CD3-) cells

Sequence of cynomolgus monkey CD3 on cynomolgus monkey PBMC / T cells (cynomolgus monkey) (Q95LI5 22-198): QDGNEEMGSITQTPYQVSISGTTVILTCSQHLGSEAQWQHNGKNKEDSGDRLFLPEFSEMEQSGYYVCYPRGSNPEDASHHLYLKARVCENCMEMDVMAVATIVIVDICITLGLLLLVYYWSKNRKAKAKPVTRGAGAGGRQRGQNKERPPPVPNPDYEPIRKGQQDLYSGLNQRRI
Sequence of human CD3 on Jurkat.2B8 (CD3+/EGFR-) cells (human) (P07766 23-207): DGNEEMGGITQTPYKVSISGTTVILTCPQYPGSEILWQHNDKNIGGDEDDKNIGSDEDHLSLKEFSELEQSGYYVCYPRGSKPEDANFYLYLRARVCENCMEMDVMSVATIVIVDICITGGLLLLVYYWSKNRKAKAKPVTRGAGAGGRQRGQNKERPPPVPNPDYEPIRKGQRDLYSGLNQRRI

- Top MFI [1]: 235 MFI
- Top MFI [2]: 210 MFI
- Top MFI [3]: 38 MFI
- Top MFI [4]: 137 MFI
Substance: IgG4 isotype control (antibody)
